For 48 variants, abundance fitness results are on record in the Human Domainome abundance scans (Beltran et al. 2025).

± gives the uncertainty stated by the source.

B1: POU domain, class 6, transcription factor 2, residues 609 to 663; numbered along this chain, P78424 (parent)
chain: KRRTSFTPQALEILNAHFEKNTHPSGQEMTEIAEKLNYDREVVRVWFCNKRQALK

The variants in this data set derive from B1. The experiment in a line: abundance fitness (aPCA) (normalised: wild type 0, dead -1); higher = more abundant; growth selection in yeast, the domain comes from the species named. Conditions: Homo sapiens.
With KRRTSFTPQALEICNAHFEKNTHPSGQEMTEIAEKLNYDREVVRVWFCNKRQALK [L14C], the abundance fitness is -0.734 ± 0.19.

As to KRRTSFTPQALEIQNAHFEKNTHPSGQEMTEIAEKLNYDREVVRVWFCNKRQALK [L14Q], the abundance fitness was -0.819 ± 0.11.

As for KRRTSFTPQALEIENAHFEKNTHPSGQEMTEIAEKLNYDREVVRVWFCNKRQALK [L14E], the abundance fitness is -1.07 ± 0.19.

KRRTSFTPQALEIHNAHFEKNTHPSGQEMTEIAEKLNYDREVVRVWFCNKRQALK [L14H]: the abundance fitness is -0.788 ± 0.31.

For the variant KRRTSFTPQALEISNAHFEKNTHPSGQEMTEIAEKLNYDREVVRVWFCNKRQALK [L14S], the abundance fitness is -1.05 ± 0.14.

As to KRRTSFTPQALEIPNAHFEKNTHPSGQEMTEIAEKLNYDREVVRVWFCNKRQALK [L14P], the abundance fitness is -0.852 ± 0.21.

As to KRRTSFTPQALEIKNAHFEKNTHPSGQEMTEIAEKLNYDREVVRVWFCNKRQALK [L14K], the abundance fitness was -0.874 ± 0.34.

Take KRRTSFTPQALEIDNAHFEKNTHPSGQEMTEIAEKLNYDREVVRVWFCNKRQALK [L14D]: the abundance fitness is -0.972 ± 0.2.

As to KRRTSFTPQALEIVNAHFEKNTHPSGQEMTEIAEKLNYDREVVRVWFCNKRQALK [L14V], the abundance fitness is -0.729 ± 0.089.

Consider KRRTSFTPQALEINNAHFEKNTHPSGQEMTEIAEKLNYDREVVRVWFCNKRQALK [L14N], for which the abundance fitness is -1.06 ± 0.34.

With KRRTSFTPQALEITNAHFEKNTHPSGQEMTEIAEKLNYDREVVRVWFCNKRQALK [L14T], the abundance fitness was -0.936 ± 0.19.

For KRRTSFTPQALEIWNAHFEKNTHPSGQEMTEIAEKLNYDREVVRVWFCNKRQALK [L14W], the abundance fitness is -1.03 ± 0.13.

Regarding KRRTSFTPQALEIANAHFEKNTHPSGQEMTEIAEKLNYDREVVRVWFCNKRQALK [L14A], the abundance fitness is -0.969 ± 0.14.

In the case of KRRTSFTPQALEIGNAHFEKNTHPSGQEMTEIAEKLNYDREVVRVWFCNKRQALK [L14G], the abundance fitness was -0.919 ± 0.08.

On to KRRTSFTPQALEIINAHFEKNTHPSGQEMTEIAEKLNYDREVVRVWFCNKRQALK [L14I], for which the abundance fitness is -0.898 ± 0.23.

With KRRTSFTPQALEIFNAHFEKNTHPSGQEMTEIAEKLNYDREVVRVWFCNKRQALK [L14F], the abundance fitness was -0.877 ± 0.24.

KRRTSFTPQALEIYNAHFEKNTHPSGQEMTEIAEKLNYDREVVRVWFCNKRQALK [L14Y]: the abundance fitness was -0.878 ± 0.24.

As for KRRTSFTPKALEILNAHFEKNTHPSGQEMTEIAEKLNYDREVVRVWFCNKRQALK [Q9K], the abundance fitness was -0.037 ± 0.2.

Regarding KRRTSFTPGALEILNAHFEKNTHPSGQEMTEIAEKLNYDREVVRVWFCNKRQALK [Q9G], the abundance fitness is -0.06 ± 0.085.

In the case of KRRTSFTPWALEILNAHFEKNTHPSGQEMTEIAEKLNYDREVVRVWFCNKRQALK [Q9W], the abundance fitness was -0.184 ± 0.16.

Take KRRTSFTPMALEILNAHFEKNTHPSGQEMTEIAEKLNYDREVVRVWFCNKRQALK [Q9M]: the abundance fitness is -0.041 ± 0.22.

With KRRTSFTPIALEILNAHFEKNTHPSGQEMTEIAEKLNYDREVVRVWFCNKRQALK [Q9I], the abundance fitness is -0.057 ± 0.5.

Take KRRTSFTPSALEILNAHFEKNTHPSGQEMTEIAEKLNYDREVVRVWFCNKRQALK [Q9S]: the abundance fitness was -0.207 ± 0.096.

For KRRTSFTPDALEILNAHFEKNTHPSGQEMTEIAEKLNYDREVVRVWFCNKRQALK [Q9D], the abundance fitness was -0.12 ± 0.15.

With KRRTSFTPYALEILNAHFEKNTHPSGQEMTEIAEKLNYDREVVRVWFCNKRQALK [Q9Y], the abundance fitness is -0.088 ± 0.3.

For KRRTSFTPTALEILNAHFEKNTHPSGQEMTEIAEKLNYDREVVRVWFCNKRQALK [Q9T], the abundance fitness was -0.106 ± 0.18.

Regarding KRRTSFTPHALEILNAHFEKNTHPSGQEMTEIAEKLNYDREVVRVWFCNKRQALK [Q9H], the abundance fitness is -0.049 ± 0.24.

KRRTSFTPLALEILNAHFEKNTHPSGQEMTEIAEKLNYDREVVRVWFCNKRQALK [Q9L]: the abundance fitness was -0.253 ± 0.092.

As for KRRTSFTPEALEILNAHFEKNTHPSGQEMTEIAEKLNYDREVVRVWFCNKRQALK [Q9E], the abundance fitness is -0.432 ± 0.2.

As to KRRTSFTPNALEILNAHFEKNTHPSGQEMTEIAEKLNYDREVVRVWFCNKRQALK [Q9N], the abundance fitness is -0.141 ± 0.18.

As to KRRTSFTPPALEILNAHFEKNTHPSGQEMTEIAEKLNYDREVVRVWFCNKRQALK [Q9P], the abundance fitness is -0.028 ± 0.15.

For the variant KRRTSFTPQCLEILNAHFEKNTHPSGQEMTEIAEKLNYDREVVRVWFCNKRQALK [A10C], the abundance fitness is -0.154 ± 0.23.

On to KRRTSFTPQQLEILNAHFEKNTHPSGQEMTEIAEKLNYDREVVRVWFCNKRQALK [A10Q], for which the abundance fitness is -0.107 ± 0.17.

Take KRRTSFTPQVLEILNAHFEKNTHPSGQEMTEIAEKLNYDREVVRVWFCNKRQALK [A10V]: the abundance fitness is -0.227 ± 0.13.

On to KRRTSFTPQMLEILNAHFEKNTHPSGQEMTEIAEKLNYDREVVRVWFCNKRQALK [A10M], for which the abundance fitness was -0.206 ± 0.2.

Consider KRRTSFTPQYLEILNAHFEKNTHPSGQEMTEIAEKLNYDREVVRVWFCNKRQALK [A10Y], for which the abundance fitness is -0.76 ± 0.29.

In the case of KRRTSFTPQDLEILNAHFEKNTHPSGQEMTEIAEKLNYDREVVRVWFCNKRQALK [A10D], the abundance fitness was -0.015 ± 0.15.

In the case of KRRTSFTPQRLEILNAHFEKNTHPSGQEMTEIAEKLNYDREVVRVWFCNKRQALK [A10R], the abundance fitness is -0.904 ± 0.14.

With KRRTSFTPQGLEILNAHFEKNTHPSGQEMTEIAEKLNYDREVVRVWFCNKRQALK [A10G], the abundance fitness is -0.087 ± 0.12.

Turning to KRRTSFTPQWLEILNAHFEKNTHPSGQEMTEIAEKLNYDREVVRVWFCNKRQALK [A10W], the abundance fitness is -0.87 ± 0.27.

Consider KRRTSFTPQSLEILNAHFEKNTHPSGQEMTEIAEKLNYDREVVRVWFCNKRQALK [A10S], for which the abundance fitness is -0.262 ± 0.15.

Regarding KRRTSFTPQNLEILNAHFEKNTHPSGQEMTEIAEKLNYDREVVRVWFCNKRQALK [A10N], the abundance fitness was -0.106 ± 0.28.

For the variant KRRTSFTPQKLEILNAHFEKNTHPSGQEMTEIAEKLNYDREVVRVWFCNKRQALK [A10K], the abundance fitness was -0.587 ± 0.33.

With KRRTSFTPQLLEILNAHFEKNTHPSGQEMTEIAEKLNYDREVVRVWFCNKRQALK [A10L], the abundance fitness was -0.51 ± 0.13.

As for KRRTSFTPQELEILNAHFEKNTHPSGQEMTEIAEKLNYDREVVRVWFCNKRQALK [A10E], the abundance fitness came to 0.062 ± 0.14.

With KRRTSFTPQFLEILNAHFEKNTHPSGQEMTEIAEKLNYDREVVRVWFCNKRQALK [A10F], the abundance fitness was -0.538 ± 0.22.

Regarding KRRTSFTPQAAEILNAHFEKNTHPSGQEMTEIAEKLNYDREVVRVWFCNKRQALK [L11A], the abundance fitness is -0.279 ± 0.1.

Regarding KRRTSFTPQAMEILNAHFEKNTHPSGQEMTEIAEKLNYDREVVRVWFCNKRQALK [L11M], the abundance fitness is -0.092 ± 0.14.
